# Source: article doi:10.1101/2023.05.28.542642 (bioRxiv, 2023)
# Ends that are not written are not given here.
# Target: calmodulin (recombinant bovine CaM) (bovine, UniProt P62157 1-149)
# Assay: fluorescence polarisation
binder,measurement,value
{BODIPY TR‑X}-KKKKKRFSFKKSFKLSGFSFKKNKK [MARCKS effector domain (aa 151-175) labeled with BODIPY TR],binding result,binds
